Measurements taken from the supplement of paper PMC10724198.
± gives the standard deviation of the averaged measurements.

What follows are sequences tested on Saccharomyces cerevisiae (assay: protein stability index of tFT-peptide fusion (C-terminal peptide) (PSI (0-1 scale)); higher = more stable (slower turnover)). Settings: genetic background: wild type; temperature: 30 C.
Description: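 Multiplexed protein stability (MPS) profiling in S. cerevisiae. Random 12-aa peptides (tFT-X12 library) are fused to the C-terminus of a sfGFP-mCherry tandem fluorescent timer, after mCherry and a GGGS linker. Cells are FACS-sorted into 8 mCherry/sfGFP bins and deep-sequenced. The protein stability index (PSI) is the read-weighted bin average, scaled from 0 (unstable) to 1 (stable). Only peptides with >10 reads are reported; cells were grown at 30 °C in SC-His with glucose.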
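Also: PSI is a weighted mean of sequencing reads over stability bins, variants kept only with over 10 reads, mCherry proximal and sfGFP distal, peptide attached via GGGS linker.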

Sequence | protein stability index
FWSCCCTLLFCV | 0.5974 ± 0.002
FYLMSDTNLPAL | 0.664 ± 0.021
FYSRSVTLEVLH | 0.605 ± 0.023
FYWFPYYFSHLH | 0.602 ± 0.048
GAAGGRGRGTAW | 0.619 ± 0.15
GACSIVFYKVKR | 0.653 ± 0.048
GAGGSAGARSAE | 0.702 ± 0.03
GAGRGGGRGRRW | 0.661 ± 0.031
GAGRVRAPGRWP | 0.6965 ± 0.0035
GAGSGTRQPKPR | 0.617 ± 0.0076
GAGSRRRNWGGW | 0.711 ± 0.0081
GAILQVEAITHN | 0.657 ± 0.068
GALVEGVFGHVR | 0.658 ± 0.0066
GAPPPAFPISSP | 0.648 ± 0.05
GAQVGVRFLFSI | 0.55 ± 0.011
GARHTALCCPMG | 0.623 ± 0.041
GARRGVSERSPA | 0.647 ± 0.041
GASGGNRTGRRS | 0.681 ± 0.022
GASGWGGGGRGR | 0.767 ± 0.14
GATPRTAGRRPG | 0.688 ± 0.038
GAVCRRVWVGSW | 0.674 ± 0.0089
GAVRAVAGGGAR | 0.711 ± 0.067
GAVVGGRCFCRR | 0.715 ± 0.012
GCARLPALCCMF | 0.694 ± 0.039
GCCCVMNQLRRR | 0.777 ± 0.088

Sequence | protein stability index
GCELVISCAHPV | 0.695 ± 0.063
GCFRGLYVVRGG | 0.647 ± 0.039
GCFVGCDHWGVV | 0.67 ± 0.028
GCGEGNVRPCEL | 0.6347 ± 0.0011
GCGFRGVYSCWV | 0.678 ± 0.078
GCGGGGGAWKGV | 0.751 ± 0.056
GCGMCDPRCEHY | 0.743 ± 0.083
GCGSWAWWCGRG | 0.894 ± 0.08
GCGVGVGASVGR | 0.636 ± 0.025
GCLHVVGGVCLG | 0.69 ± 0.048
GCLPSGTPAWFG | 0.751 ± 0.052
GCMRCTYKGKVK | 0.713 ± 0.059
GCSVSRIRSAYV | 0.672 ± 0.0089
GCVGGWLGEGIG | 0.627 ± 0.035
GCVSAVSKCFFL | 0.751 ± 0.1
GDARLAIWSLVT | 0.512 ± 0.0098
GDIILSFFNFSK | 0.666 ± 0.024
GDLVRNARSLII | 0.72 ± 0.014
GDRYFGTPAPSH | 0.757 ± 0.021
GDYETPSTRSPM | 0.67 ± 0.023
GEAVGRWSECRS | 0.664 ± 0.0091
GEDADLVPILLG | 0.707 ± 0.044
GEFSINDGSGWT | 0.7106 ± 0.0045
GEGAWNRKKPGD | 0.632 ± 0.067
GEGRRQIKEEHV | 0.6842 ± 0.0042

Sequence | protein stability index
GEGRRWGSFWVG | 0.6701 ± 0.0039
GEGVPVWNQCVE | 0.658 ± 0.0091
GEGVVRGDGVRG | 0.656 ± 0.041
GEIMGEVARREK | 0.66 ± 0.048
GELGIECREVVG | 0.704 ± 0.087
GELVVRVGEWGC | 0.7051 ± 0.0027
GEQAGLSLTAGP | 0.678 ± 0.03
GERRREKRKNSG | 0.726 ± 0.046
GESTNVYTTHWI | 0.736 ± 0.011
GESWCGLVWPGG | 0.675 ± 0.013
GEVILERKRRKI | 0.629 ± 0.057
GEVKRSLGQVRG | 0.695 ± 0.007
GEWRHVFSVTRC | 0.7475 ± 0.0025
GEWVNLGFGFLF | 0.781 ± 0.11
GEYYKRKMNGSK | 0.718 ± 0.11
GFARICVLLPSS | 0.727 ± 0.039
GFEIFYLVLGIP | 0.52979 ± 0.00023
GFETGLGKGAGW | 0.714 ± 0.019
GFGCVGSIFVIY | 0.66 ± 0.018
GFGFMGLRFGVD | 0.762 ± 0.13
GFGPPGPCSYVR | 0.691 ± 0.042
GFGSGVVAGSSL | 0.682 ± 0.044
GFISFASRISTS | 0.722 ± 0.032
GFLEAIMRFCGL | 0.719 ± 0.0081
GFLVNNCLGFLW | 0.782 ± 0.051

Sequence | protein stability index
GFLVPVALCPVV | 0.557 ± 0.03
GFPGLFCGPVRF | 0.742 ± 0.054
GFPGSYSKVLCL | 0.6619 ± 0.0032
GFRPVVAGIGHS | 0.6632 ± 0.0061
GFSAGVSHSGAG | 0.661 ± 0.017
GFSRELTLARLI | 0.613 ± 0.017
GFTGGGRRWLGG | 0.713 ± 0.056
GFTGWGRRWLGG | 0.713 ± 0.059
GFVGVGEEEIFG | 0.7217 ± 0.006
GFVRYPYFAFGR | 0.687 ± 0.093
GGAGGNLAPGRG | 0.638 ± 0.026
GGALTADTTIAP | 0.662 ± 0.087
GGAMLMLAVEGV | 0.609 ± 0.044
GGAWRGWCVGVR | 0.644 ± 0.1
GGAYRCFSIQRS | 0.687 ± 0.0078
GGCAGGGGVVVR | 0.6851 ± 0.0046
GGCAGRGGVVVR | 0.6904 ± 0.0029
GGCEWWSGGRGG | 0.733 ± 0.026
GGCGGVCGACVV | 0.695 ± 0.011
GGCGLGGVLEVG | 0.676 ± 0.017
GGCGNVGVGVSV | 0.694 ± 0.012
GGCGYGELWAWA | 0.7908 ± 0.0038
GGCPPFGVSSVG | 0.708 ± 0.013
GGCRGDGMMGVG | 0.552 ± 0.072
GGCSCLGVGCLS | 0.675 ± 0.045

Sequence | protein stability index
GGCVWWSWGRGG | 0.652 ± 0.016
GGDARGRGGMPD | 0.712 ± 0.12
GGDIRGGVRHIG | 0.725 ± 0.026
GGEGRGRVWEIS | 0.686 ± 0.068
GGELRPKGVRGV | 0.656 ± 0.046
GGENGLGGLGVG | 0.626 ± 0.14
GGFESRVVGGVG | 0.526 ± 0.034
GGFRDIAYCLVP | 0.613 ± 0.0072
GGGARWAGLGEG | 0.687 ± 0.06
GGGCERGVGLLG | 0.626 ± 0.066
GGGCGLFVFLSL | 0.63 ± 0.058
GGGCQVSPPSLL | 0.7076 ± 0.0024
GGGCVGGGSSCA | 0.701 ± 0.12
GGGGGCGRAGGG | 0.714 ± 0.053
GGGGGCLSGRLG | 0.654 ± 0.028
GGGGGCVGRLWG | 0.742 ± 0.026
GGGGGEWCLVRL | 0.688 ± 0.027
GGGGGGGGYLGA | 0.715 ± 0.027
GGGGGGGWGAVG | 0.688 ± 0.0076
GGGGGGLLDVGV | 0.685 ± 0.027
GGGGGLVVFGWK | 0.687 ± 0.007
GGGGGVRLVVSR | 0.668 ± 0.027
GGGGGVSGGGVF | 0.672 ± 0.063
GGGGRGLLDVGV | 0.689 ± 0.031
GGGGRGVGRGWG | 0.675 ± 0.0046

Sequence | protein stability index
GGGGSFLVGLGL | 0.647 ± 0.056
GGGGSRWAGPRC | 0.636 ± 0.031
GGGGVVRAWGLR | 0.738 ± 0.043
GGGLAPADQVGV | 0.729 ± 0.043
GGGLGAGWGVWG | 0.68 ± 0.035
GGGLGGGGFRGG | 0.749 ± 0.033
GGGLGGLGCFMV | 0.698 ± 0.036
GGGLSWARRSPS | 0.683 ± 0.069
GGGLVLSGWCVW | 0.751 ± 0.026
GGGREGEIGGGG | 0.5705 ± 0.0013
GGGRGGFRVVVG | 0.744 ± 0.042
GGGRGGSTPALG | 0.667 ± 0.03
GGGRGWAGENTR | 0.704 ± 0.028
GGGRPGLRALSY | 0.747 ± 0.034
GGGSGGEAVRVW | 0.645 ± 0.026
GGGSGGRRLVRF | 0.726 ± 0.023
GGGSHASERAAR | 0.723 ± 0.022
GGGSIAPRSVGT | 0.7649 ± 0.0021
GGGSVGMWGWWV | 0.625 ± 0.075
GGGTGALGTVRW | 0.765 ± 0.055
GGGVGLRGGWDG | 0.71 ± 0.044
GGGVRGGVLVLG | 0.51 ± 0.03
GGGVSSEWSGCR | 0.665 ± 0.0087
GGGVWGVGRGIL | 0.6 ± 0.013
GGGWGGGGSSCA | 0.659 ± 0.055

Sequence | protein stability index
GGGWGSMDLRDR | 0.712 ± 0.016
GGGWSRGGVGDR | 0.672 ± 0.027
GGGWSRRGVGDR | 0.673 ± 0.028
GGIRGEGEVGKR | 0.69 ± 0.021
GGKLNRAGRATG | 0.697 ± 0.088
GGLACTLAAFYL | 0.733 ± 0.047
GGLGFVGGVRVQ | 0.6705 ± 0.00086
GGLICRHGVGRG | 0.705 ± 0.024
GGLRRMGVRPCA | 0.715 ± 0.21
GGLSGGMRIEDS | 0.686 ± 0.028
GGLVTSGGWRCA | 0.71 ± 0.065
GGLWLCFVPEVM | 0.563 ± 0.0077
GGMAWGPVCGAG | 0.6906 ± 0.0018
GGNRRIKEKSRL | 0.785 ± 0.016
GGPESMDILRFR | 0.62 ± 0.069
GGPPSPPFFDAV | 0.741 ± 0.081
GGPTCSSSCDPV | 0.67 ± 0.038
GGRCGEGLVREG | 0.702 ± 0.021
GGRGGEGRGGSG | 0.658 ± 0.018
GGRGPSAVGSGV | 0.74 ± 0.085
GGRGRGMWGIFG | 0.681 ± 0.0096
GGRGRWEMVGRT | 0.7 ± 0.021
GGRGSGLVGCSL | 0.6 ± 0.065
GGRGVVVVQGAG | 0.6978 ± 0.0013
GGRGWRSGTEGE | 0.675 ± 0.013

Sequence | protein stability index
GGRGWWRGTGSG | 0.719 ± 0.056
GGRIRLLTYFGR | 0.601 ± 0.042
GGRLGRGVVRGW | 0.704 ± 0.011
GGRRVWAGRTGV | 0.734 ± 0.077
GGRSGGWCGCWG | 0.711 ± 0.032
GGRVAGSMGGGG | 0.719 ± 0.056
GGRVLKFLLGRL | 0.668 ± 0.15
GGRVWGAVGAGP | 0.627 ± 0.082
GGSALGCLCRWM | 0.823 ± 0.029
GGSEEGGKAAKT | 0.652 ± 0.015
GGSGGAVEERGG | 0.6573 ± 0.0013
GGSRGVGASEEC | 0.6515 ± 0.005
GGSRRGRRLLTQ | 0.699 ± 0.037
GGTGWVGEMGGR | 0.796 ± 0.069
GGTHCRVCCVLF | 0.659 ± 0.02
GGVATQARQTCN | 0.742 ± 0.17
GGVFTHLEKAVD | 0.649 ± 0.046
GGVGAFAARRFA | 0.634 ± 0.012
GGVGCLGVFSVG | 0.7 ± 0.013
GGVGGAGGRNRG | 0.674 ± 0.014
GGVGGCARVWPR | 0.654 ± 0.061
